Data reported in the supplement of paper PMC12042874.
± gives the uncertainty stated by the source.

Assay: amyloid nucleation score (Sup35N fusion, yeast selection) (log enrichment); library NNK2; higher = more nucleation; inactive = no reads after selection
Summary of the method: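 Peptides of 20 random codons fused to Sup35N were expressed in psi-negative yeast, induced 24 hours with 100 μM copper sulfate, then grown 7 days at 30°C on medium lacking adenine and uracil. Input and output plasmid inserts were Illumina-sequenced. Nucleation score is the DiMSum log enrichment of output over input reads, centred on the mode score of non-aggregating sequences, excluding sequences with under 100 input reads. Random libraries had three technical output replicates.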

Substance	amyloid nucleation score
RRDHHMPPITPGCFRLYWRI	0.237 ± 1
ICFVFF	-0.777 ± 1
YIGVKKNNSMAGAYGGSLAQ	inactive
MSMLMRVRCEISVTTML	4.498 ± 0.031
SFRRSE	-0.388 ± 1
PCTRS	0.414 ± 0.31
PLVLSFFRAIYSYYCNWKTC	-0.649 ± 0.64
IAKMSFAINNDIYNCRFIST	2.46 ± 0.11
EFIDLVD	inactive
VIPSSILLEGYVLLYACYLP	-0.217 ± 0.44
DIVANDKMMIIRVIMGTWCH	0.927 ± 0.45
GIIDMSRLVMHQITEPLLSQ	0.092 ± 0.32
WYYGLTPSQACGGEIPCDFQ	6.523 ± 0.056
CTNAGRFMTWSNFRYIG	0.501 ± 0.8
TLFQFWKYLVSTTCIML	3.18 ± 0.11
NCLMLVGNIFWSEESPRLAM	8.041 ± 0.068
NNRHLSPVVRSY	inactive
YWFFNWEWSGLVVYVGRFSA	inactive
GTFSCGSGEI	0.534 ± 0.8
DTIILC	inactive
YCHALARLSGFL	0.127 ± 0.27
LQFLLLE	3.38 ± 0.047

Substance	amyloid nucleation score
PRMSTMTTKCGKLKNGKYRR	0.549 ± 0.51
CYYMCAYRGVAK	0.637 ± 0.36
IRRTPHLISFLRKLCEYWIE	inactive
HHGQTHHLMWNWIF	4.27 ± 0.1
SIIYISWSVRHHYVKVG	-0.666 ± 0.46
YNSTR	-0.082 ± 0.63
YGMKSRVECVVY	-0.949 ± 0.63
NLSCNLFVSFWYGW	4.67 ± 0.068
FYDSVKEISVLSCVWGDILE	7.235 ± 0.029
AVLPSIDYGCEPRL	0.136 ± 0.5
IFGLNHWTVFSSPINLSTSG	inactive
KHSDSTGARQWGNNVYKLDD	0.366 ± 0.2
TGPIWLCYACAWTNTYTPAE	9.357 ± 0.055
HWDLIGGVL	-0.176 ± 1.1
LRLFNLKQKKNRKNWRMFAG	-0.979 ± 0.6
WYGFFTVLWSKTVRLDFNPM	-1.05 ± 0.54
YCCGGRIRKSRLINFYVTWS	-0.046 ± 0.5
LDALVSWSLECGWYESCWSR	-0.025 ± 0.32
GGMDNQCHLVRCGRRSLAPV	1.65 ± 0.4
TMRFLVGFCLTNWDNLNASC	3.67 ± 0.05
HHRIFGMIDELSKVTNIHFG	-0.434 ± 0.74
VGTTNQYDEPTTGLSHC	0.953 ± 0.32

Substance	amyloid nucleation score
DLQIFTLLFTR	inactive
LAISHMLSKCVKKIDTL	1.56 ± 0.2
GRIILTLFNYYT	6.878 ± 0.062
FRTTALLRFKRWDYGVIRNR	0.021 ± 0.46
RQEFNCIASCRF	2.12 ± 0.091
NFMYRSSMFMHL	4.74 ± 0.074
RTCDDA	0.294 ± 0.8
TLLWSRTMYVGIPSYRYGGA	0.676 ± 0.8
FGMYPVVGCLDRLYWMRLYA	0.539 ± 0.81
YFYPFLCLTKNQLVLSNRRT	4.47 ± 0.073
MTIVCRWR	3.04 ± 0.16
LAQVFIIEAPFMTKFLPMLR	2.81 ± 0.097
GWKDGLAASSF	1.01 ± 0.2
LNVDGDRAGVYIVKVHDPVR	0.027 ± 0.74
AYSIFVFYTYVTTHLRHITR	inactive
CKCYTAQCWVSRNLMKRPLT	0.579 ± 0.49
SMRISHTGAQQDLDDCAMRK	0.635 ± 0.65
FMECVSNNRMELVAGNEKGC	0.082 ± 0.27
PGNCRSFCRS	0.695 ± 0.47
YPKFYIWYYVYRLLALTCVY	-1.03 ± 0.37
ALKNLHAHTG	0.015 ± 0.8
ICSKRIFFSA	-0.772 ± 1.1

Substance	amyloid nucleation score
VGEYLCEPATLY	-0.018 ± 1.1
VNFNQSRCVDYVGILVIGG	-0.248 ± 0.28
YNDSDFWGRVWSTHAPCKAT	-0.134 ± 1.1
SEFPIVQLCIAWDKLCKHLY	-0.179 ± 0.26
TGHKFPLRGSMRVVLDFFSR	3.09 ± 0.089
AMVLLYDGTGSTGVNPGQAG	0.987 ± 0.67
FLSSSGRFSIVYSLFYEWIP	-0.674 ± 0.76
IFHHPNHIHVDQFSPLLFYE	-0.64 ± 0.79
DETYHKYDRFWLGVMSFGFY	-0.787 ± 0.34
FILCMTSWDYLDDCRFLFEL	1.03 ± 0.25
IHRGWSWMQSRILDVGSR	0.162 ± 0.54
LRADLYCFACLNAPSC	5.89 ± 0.091
VRSYNVKYCSRRNLICGDG	-0.019 ± 0.41
YLRDVYSSIFAPGMRYPQTR	2.22 ± 0.094
NKLTV	-0.381 ± 0.79
WEIYIGTLTIKWLFTMDRLV	-0.133 ± 0.23
PKPTYTP	0.292 ± 0.38
TIRRVRSALQQHM	0.041 ± 0.49
SISCSADFVFNCSHGHNTVP	6.17 ± 0.069
PVIFGTR	0.192 ± 1
EETVLIFLCYMAGRDLYKVN	3.21 ± 0.096
